One substance from paper doi:10.1101/2021.07.22.453368 can be followed below.

Where only a bound is given, the exact number is not on record here.

Assay [1] addresses human Nogo 66 receptor 1 (human) (UniProt Q9BZR6). Briefly: flow cytometry on cells.
The target of assay [2] is junctional adhesion molecule-A (human) (UniProt Q9Y624). Briefly: flow cytometry on cells.
Sequence of UniProt Q9Y624 (Q9Y624 28-299): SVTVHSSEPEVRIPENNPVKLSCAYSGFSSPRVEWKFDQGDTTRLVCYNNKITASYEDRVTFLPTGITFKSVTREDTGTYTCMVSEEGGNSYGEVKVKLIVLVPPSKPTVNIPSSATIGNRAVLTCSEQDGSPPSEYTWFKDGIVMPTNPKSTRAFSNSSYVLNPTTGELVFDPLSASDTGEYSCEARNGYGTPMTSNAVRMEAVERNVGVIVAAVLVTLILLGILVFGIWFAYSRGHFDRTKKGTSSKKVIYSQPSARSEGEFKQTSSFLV

Sequence of UniProt Q9BZR6 (Q9BZR6 27-447): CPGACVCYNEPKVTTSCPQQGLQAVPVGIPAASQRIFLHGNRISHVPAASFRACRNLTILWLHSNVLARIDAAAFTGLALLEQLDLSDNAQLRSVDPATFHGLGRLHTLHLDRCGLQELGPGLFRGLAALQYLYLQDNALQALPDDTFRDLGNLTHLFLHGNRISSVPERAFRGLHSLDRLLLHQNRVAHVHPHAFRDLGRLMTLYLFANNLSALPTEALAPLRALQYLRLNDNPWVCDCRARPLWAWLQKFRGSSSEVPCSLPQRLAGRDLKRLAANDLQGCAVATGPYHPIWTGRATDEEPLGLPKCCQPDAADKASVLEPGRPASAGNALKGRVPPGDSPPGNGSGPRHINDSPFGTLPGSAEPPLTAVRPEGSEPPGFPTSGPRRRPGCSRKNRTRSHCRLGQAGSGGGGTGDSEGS

As for reovirus T3SA- virions (complex), the percent of receptor-expressing cells bound by reovirus in assay [1] and in assay [2] was over 50% each time.
